Target: the molecule itself
Test: cryo-EM structure; nucleosome (0.9 µM) and Rpd3S (1.8 µM) mixed on ice for 1 h in 50 mM NaCl, 20 mM Na-HEPES pH 7.4, 1 mM TCEP, 4% glycerol; Superose 6 Increase 3.2/300; mild glutaraldehyde cross-linking; single-particle cryo-EM, overall 2.8 Å (Ume1 only at more than 8 Å)

B1: Rco1 (natural protein, S. cerevisiae)
chain: MDTSKKDTTRSPSHSNSSSPSSSSLSSSSSKEKKRPKRLSSQNVNYDLKRRKIITSEGIERSFKNEHSNLAVEDNIPEEEPKELLEKDSKGNIIKLNEPSTISEDSKVSVTGLPLNKGPSEKIKRESLWNYRKNLGGQSNNSEMTLVPSKRFTQVPKNFQDLNRNDLKTFLTENMTEESNIRSTIGWNGDIINRTRDREPESDRDNKKLSNIRTKIILSTNATYDSKSKLFGQNSIKSTSNASEKIFRDKNNSTIDFENEDFCSACNQSGSFLCCDTCPKSFHFLCLDPPIDPNNLPKGDWHCNECKFKIFINNSMATLKKIESNFIKQNNNVKIFAKLLFNIDSHNPKQFQLPNYIKETFPAVKTGSRGQYSDENDKIPLTDRQLFNTSYGQSITKLDSYNPDTHIDSNSGKFLICYKCNQTRLGSWSHPENSRLIMTCDYCQTPWHLDCVPRASFKNLGSKWKCPLHSPTKVYKKIHHCQEDNSVNYKVWKKQRLINKKNQLYYEPLQKIGYQNNGNIQIIPTTSHTDYDFNQDFKITQIDENSIKYDFFDKIYKSKMVQKRKLFQFQESLIDKLVSNGSQNGNSEDNMVKDIASLIYFQVSNNDKSSNNKSASKSNNLRKLWDLKELTNVVVPNELDSIQFNDFSSDEIKHLLYLKKIIESKPKEELLKFLNIENPENQSE
notes: Rco1, S. cerevisiae, amplified from genomic DNA of strain BJ5464; cloned into a 438-A vector with no tag; Two copies (Rco1A in the core module, Rco1B in the auxiliary module) stand in the Rpd3S complex; also called Rco1A; Rco1B
B1: binds.
